Results on seven molecules are retold here after patent publication US7566535B2, “Enhanced oligonucleotide-mediated nucleic acid sequence alteration” (University of Delaware, priority 2002, dated 2009).

For series [1], the system named is pAURHYG(x)eGFP. Nature of the series: Hygromycin gene correction in yeast LSY678 with or without trichostatin A.
Another series concerns CYC1 gene. Description: CYC1 gene repair in diploid yeast strains, growth on glycerol (YPG).
Series [2] concerns mutant kanamycin gene in plasmid pK^Sm4021. Description: Gene repair of plasmid pK^Sm4021 in yeast cell-free extracts, kan^r/amp^r colony readout in E. coli DH10B.
In a further series the test system is pAURNeo(−)FlAsH plasmid. Nature of the series: FlAsH fluorescence assay of neomycin phosphotransferase gene correction in yeast.
The subject of series [3] is pAURHYG(x)eGFP. Description: Strand bias of hygromycin gene correction in rad1 and rad10 yeast mutants.
Series [4] deals with human β-globin gene in YAC. Nature of the series: Dual targeting: second-site editing of β-globin gene in YAC, SNaPshot and sequencing. Conditions: HU, TSA, RAD51 overexpression.
Setting [5] is: YMH51 (wild-type CYC1), 5 μg oligo.
Where [6] appears, read: YMH55 with PYNMRE11, 5 μg oligo.
[7] abbreviates: YMH55 with PYNRAD51, 5 μg oligo.
The mark [8] stands for this setting: YMH55 with PYNRAD52, 5 μg oligo.
The mark [9] stands for this setting: YMH55 with PYNRAD54, 5 μg oligo.
Where [10] appears, read: YMH55 with PYNRAD55, 5 μg oligo.
[11] abbreviates: YMH55 with pYN132 (empty vector), 5 μg oligo.
Where [12] appears, read: YMH55 with pYNβ (lambda beta protein expression), 5 μg oligo.

Several values for one entry are separate records, joined by “and”; a condition that tells them apart may be missing. Identical values can stand only once. In the oligonucleotide strings, read from the 5' end, every base follows the letter of its sugar. An asterisk marks phosphorothioate; unmarked linkages are phosphodiester. Other units and linkages are bracketed, terminal groups are in braces. A string of capitals states the bases alone. d = 2'-deoxy (DNA)

On to `CC(/C=C/C(=O)NO)=C\[C@@H](C)C(=O)c1ccc(N(C)C)cc1` [trichostatin A, reference compound], for which the “increase of efficiency of gene alteration” value is given as at least 3 fold with pAURHYG(x)eGFP [1] (50 μg/mL during the recovery period) and “up to several-fold” in the series with pAURHYG(x)eGFP [1] (50 μg/mL for four hours prior to electroporation).

B1: Cyc1/70T: modified single-stranded vector targeting the transcribed strand of mutant CYC1, three phosphorothioated linkages at each terminus, SEQ ID NO: 21 (nucleic acid)
DNA: dA*dG*dG*dTdGdCdTdAdCdAdCdTdTdTdTdCdAdAdGdAdCdTdAdGdAdTdGdTdCdTdAdCdAdAdTdGdCdCdAdCdAdCdCdGdTdGdGdAdAdAdAdGdGdGdTdGdGdCdCdCdAdCdAdTdAdAdG*dG*dT*dT
For B1, the “No. of YPG Plate Colonies” value with CYC1 gene (setting [5]) is “lawn”; with CYC1 gene (YMH52, 5 μg oligo) it was 57; in the series with CYC1 gene (YMH53, 5 μg oligo) it was 281; in the series with CYC1 gene (YMH53 with PYNMRE11 + PYNXRS2), 155; with CYC1 gene (YMH53 with PYNRAD52 + PYNRAD54), 103; in the series with CYC1 gene (YMH54, 5 μg oligo), 43. Also, the “No. of YPG Plate Colonies” value in the series on CYC1 gene (YMH55, 5 μg oligo) is 116. For the same molecule, the C.E. with CYC1 gene (YMH52, 5 μg oligo) is listed as 0.17 ×10^−4; in the series on CYC1 gene (YMH53, 5 μg oligo), 0.74 ×10^−4; in the series on CYC1 gene (YMH54, 5 μg oligo), 0.14 ×10^−4; in the series on CYC1 gene (YMH55, 5 μg oligo), 0.38 ×10^−4. In addition, the “Average C.E.” value was “.263 ×10^−5” with CYC1 gene (YMH53 with PYNMRE11 + PYNXRS2), “.185 ×10^−5” in the series with CYC1 gene (YMH53 with PYNRAD52 + PYNRAD54) and 0.03169 ×10^−5 in the series with CYC1 gene (YMH53 with pYN132). Besides, the values for the Fold with CYC1 gene (YMH53 with PYNMRE11 + PYNXRS2), in the series with CYC1 gene (YMH53 with PYNRAD52 + PYNRAD54) and in the series on CYC1 gene (YMH53 with pYN132) were 8.29, 5.82 and 1, respectively.

B2: KanGG: chimeric, RNA-DNA double-hairpin oligonucleotide (SEQ ID NO: 1) correcting the mutant kanamycin gene of pK^Sm4021 (nucleic acid)
chain: GCUAUUCGGCUAGGACUGGGCACAAUUUUTTGTGCCCAGTCGTAGCCGAATAGCCTCTCCUUUUGGAGAG
modifications: chimeric RNA-DNA double hairpin, segment chemistry not given here
In the case of B2, the “Relative Frequency kan^r/amp^r” value in series [2] (0.5 μg oligo, 1 μg plasmid, 10 μg LSY678 extract) was 1.89 ×10^−5; in series [2] (1 μg oligo, 1 μg pK^Sm4021, no extract), 0.002 ×10^−5; in series [2] (1 μg oligo, 1 μg plasmid, 1 μg LSY678 extract), 0.32 ×10^−5; in series [2] (1 μg oligo, 1 μg plasmid, 10 μg LSY678 extract), 3.66 ×10^−5 and 2.78 ×10^−5; in series [2] (1 μg oligo, 1 μg plasmid, 20 μg LSY678 extract), 7.601 ×10^−5; in series [2] (1 μg oligo, no plasmid, 20 μg LSY678 extract), 0.0 ×10^−5. Moreover, in series [2] (2.0 μg oligo, 1 μg plasmid, 10 μg LSY678 extract), the “Relative Frequency kan^r/amp^r” value is given as 4.005 ×10^−5. In addition, the “Relative Correction Efficiency” value is 25.7 and 26.7 and 19.9 in series [2] (10 μg extract LSY386 (Δrad52)); 5.15 in series [2] (10 μg extract LSY402 (Δrad51)); 2.13 in series [2] (10 μg extract LSY407 (Δrad57)); 1.17 and 1.08 and 1.63 in series [2] (10 μg extract LSY678 (wild type)); 0.79 in series [2] (10 μg extract LSY814 (Δmsh2)); 0.35 in series [2] (10 μg extract LSY837 (Δrad59)). Also, the “Relative Correction Efficiency” value in series [2] (10 μg extract XS827-18C (Δrad54)) worked out at 1.36; in series [2] (10 μg extract YDR076W (Δrad55)), 1.27; in series [2] (10 μg extract YELO37C (Δrad23)) it was 1.04; in series [2] (extract LSY386•p52 (Δrad52 expressing RAD52)) it was 2.31; in series [2] (extract LSY678•p52 (wild type expressing RAD52)), 0.41; in series [2] (extracts LSY386 (2 μg) + LSY678 (8 μg)), 2.91. Besides, the “Relative Correction Efficiency” value was 1.85 in series [2] (extracts LSY386 (2 μg) + YELO37C (8 μg)); 5.45 in series [2] (extracts LSY386 (4 μg) + LSY678 (6 μg)); 3.71 in series [2] (extracts LSY386 (4 μg) + YELO37C (6 μg)); 10.47 in series [2] (extracts LSY386 (6 μg) + LSY678 (4 μg)); 9.22 in series [2] (extracts LSY386 (6 μg) + YELO37C (4 μg)); 14.36 in series [2] (extracts LSY386 (8 μg) + LSY678 (2 μg)). Moreover, the “Relative Correction Efficiency” value in series [2] (extracts LSY386 (8 μg) + YELO37C (2 μg)) turned out to be 16.95; in series [2] (oligo only, no plasmid, no extract) it was 0.0. In addition, the “level of repair below wild-type levels” value in series [2] (LSY678 extract expressing RAD52) worked out at 4 fold. The “corrected cells by green fluorescence (confocal microscopy)” value in the series on pAURNeo(−)FlAsH plasmid (LSY678 and LSY378) is recorded as “many corrected cells”. For the same molecule, the “number of cells exhibiting green fluorescence” value in the series with pAURNeo(−)FlAsH plasmid (strain lacking RAD52 relative to LSY678) is given as “significant increase”.

B3: beta protein: protein expressed from the bet gene of the Red recombination system of bacteriophage lambda; expressed in yeast from pYNTβ (protein, UniProt P03698 1-261, looked up)
Recombination protein bet: MSTALATLAGKLAERVGMDSVDPQELITTLRQTAFKGDASDAQFIALLIVANQYGLNPWTKEIYAFPDKQNGIVPVVGVDGWSRIINENQQFDGMDFEQDNESCTCRIYRKDRNHPICVTEWMDECRREPFKTREGREITGPWQSHPKRMLRHKAMIQCARLAFGFAGIYDKDEAERIVENTAYTAERQPERDITPVNDETMQEINTLLIALDKTWDDDLLPLCSQIFRRDIRASSELTQAEAVKALGFLKQKAAEQKVAA
Take B3: the “correction efficiency per 10^5 transformants” value in the series with CYC1 gene (beta protein expression, other experiments) stood at 0.326.

B4: Kan70T: non-specific, control oligonucleotide not complementary to the target sequence, SEQ ID NO: 11 (nucleic acid)
DNA: CATCAGAGCAGCCAATTGTCTGTTGTGCCCAGTCGTAGCCGAATAGCCTCTCCACCCAAGCGGCCGGAG
modifications: listed as DNA, chemistry not given here
Turning to B4, the “Colonies on Hygromycin” value with pAURHYG(x)eGFP [3] (rad1 mutant) and in the series on pAURHYG(x)eGFP [3] (rad10 mutant) was 0 throughout.

B5: Cyc1/70NT: modified single-stranded vector targeting the nontranscribed strand of mutant CYC1, three phosphorothioated linkages at each terminus, SEQ ID NO: 22 (nucleic acid)
DNA: dA*dA*dC*dCdTdTdAdTdGdTdGdGdGdCdCdAdCdCdCdTdTdTdTdCdCdAdCdGdGdTdGdTdGdGdCdAdTdTdGdTdAdGdAdCdAdTdCdTdAdGdTdCdTdTdGdAdAdAdAdGdTdGdTdAdGdCdA*dC*dC*dT
For the molecule B5, the “No. of YPG Plate Colonies” value is “lawn” in the series on CYC1 gene (setting [5]); 186 in the series with CYC1 gene (YMH52, 5 μg oligo); 73 with CYC1 gene (YMH53, 5 μg oligo); 178 in the series with CYC1 gene (YMH53 with PYNMRE11 + PYNXRS2); 109 in the series with CYC1 gene (YMH53 with PYNRAD52 + PYNRAD54); 80 with CYC1 gene (YMH54, 5 μg oligo). For the same molecule, the “No. of YPG Plate Colonies” value in the series with CYC1 gene (YMH55, 5 μg oligo) came out at 895; in the series on CYC1 gene (setting [6]), 25; with CYC1 gene (setting [7]), 260; with CYC1 gene (setting [8]), 108; with CYC1 gene (setting [9]), 42; in the series with CYC1 gene (setting [10]), 410. Moreover, the “No. of YPG Plate Colonies” value with CYC1 gene (YMH55 with PYNXRS2, 5 μg oligo) is listed as 22; with CYC1 gene (setting [11]) it was 19; in the series on CYC1 gene (setting [12]), 166. Besides, the C.E. in the series with CYC1 gene (YMH52, 5 μg oligo) is recorded as 0.47 ×10^−4; in the series on CYC1 gene (YMH53, 5 μg oligo) it was 0.21 ×10^−4; in the series with CYC1 gene (YMH54, 5 μg oligo), 0.28 ×10^−4; with CYC1 gene (YMH55, 5 μg oligo) it was 2.99 ×10^−4. For the same molecule, the “Average C.E.” value in the series with CYC1 gene (YMH53 with PYNMRE11 + PYNXRS2) is reported as 0.322 ×10^−5; with CYC1 gene (YMH53 with PYNRAD52 + PYNRAD54) it was 0.179 ×10^−5; with CYC1 gene (YMH53 with pYN132), 0.0056 ×10^−5; with CYC1 gene (setting [6]) it was 0.04 ×10^−5; in the series with CYC1 gene (setting [7]), 0.52 ×10^−5; in the series with CYC1 gene (setting [8]) it was 0.22 ×10^−5. Besides, the “Average C.E.” value is reported as 0.09 ×10^−5 with CYC1 gene (setting [9]); 0.78 ×10^−5 in the series with CYC1 gene (setting [10]); 0.03 ×10^−5 with CYC1 gene (YMH55 with PYNXRS2, 5 μg oligo); 0.04 ×10^−5 in the series with CYC1 gene (setting [11]); 0.32 ×10^−5 in the series on CYC1 gene (setting [12]). Also, the Fold with CYC1 gene (YMH53 with PYNMRE11 + PYNXRS2) is reported as 57.48; in the series on CYC1 gene (YMH53 with PYNRAD52 + PYNRAD54), 32.01; in the series on CYC1 gene (YMH53 with pYN132), 1; with CYC1 gene (setting [6]), 1.1; in the series on CYC1 gene (setting [7]), 14.8; with CYC1 gene (setting [8]), 6.2. The Fold is listed as 2.4 in the series with CYC1 gene (setting [9]); 22.2 in the series on CYC1 gene (setting [10]); 1.34 in the series with CYC1 gene (YMH55 with PYNXRS2, 5 μg oligo); 1 in the series on CYC1 gene (setting [11]); 9.1 in the series with CYC1 gene (setting [12]).

B6: βThal2: 71mer with three phosphorothioate linkages at 5′ and 3′ ends directing T to C in β-globin, SEQ ID NO: 28 (nucleic acid)
DNA: dT*dA*dA*dCdGdGdCdAdGdAdCdTdTdCdTdCdCdAdCdAdGdGdAdGdTdCdAdGdGdTdGdCdAdCdCdGdTdGdGdTdGdTdCdTdGdTdTdTdGdAdGdGdTdTdGdCdTdAdGdTdGdAdAdCdAdCdAdG*dT*dT*dG
On to B6, for which the “cells with corrected hygromycin also containing the edited β-globin gene” value in series [4] is on record as “approximately 10%”.
